In assay [1] the target is human GPRC5D protein (human) (UniProt Q9NZD1). Put plainly: FACS, hybridoma subclone supernatant on NCI-H929 cells. In general terms: Flow cytometry measures light scatter and fluorescence of single cells or particles in a stream.
The target in assay [2] is CHO-K1-hGPRC5D^hi cells, CHO-K1-cynoGPRC5D cells, and/or CHO-K1-murineGPRC5D cells. The experiment in a line: cell ELISA (OD450), subclone supernatant on fixed transfected CHO-K1 cells against CHO-K1.

The results in this text go back to patent publication EP4703384A1.

human GPRC5D protein (human), sequence (Q9NZD1 whole entry): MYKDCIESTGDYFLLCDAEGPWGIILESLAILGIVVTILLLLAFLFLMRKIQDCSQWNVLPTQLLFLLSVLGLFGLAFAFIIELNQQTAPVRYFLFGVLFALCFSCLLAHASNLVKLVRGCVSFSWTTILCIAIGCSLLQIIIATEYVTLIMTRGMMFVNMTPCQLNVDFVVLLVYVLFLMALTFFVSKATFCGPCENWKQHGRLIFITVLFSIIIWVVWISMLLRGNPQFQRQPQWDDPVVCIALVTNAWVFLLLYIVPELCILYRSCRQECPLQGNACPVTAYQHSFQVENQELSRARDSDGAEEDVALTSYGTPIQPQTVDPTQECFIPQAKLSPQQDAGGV

B1: mu-128 (antibody, V domains shown)
VH: DVQLVESGGGLVQPGGSRKVSCAASGFTFSSFGMHWVRQAPEKGLEWVAYISRGSSTIYYADTVKGRFTISRDNPKNTLFLQMTSLRSEDTAMYYCARSGYGSSSYYFDYWGQGTTLTVSS
VL: ENVLTQSPAIMSASPREKVTMTCRASSSIRSSYLHWYQQKSGASPKLWIYSTSNLASGVPARFSGSGSGTSYSLTISSVEAEDAATYYCQQFSGYPLTFGGGTKLEIK
Molecule B1 registered an MFI in assay [1] of 15700 MFI. In assay [2], this molecule registered a fold difference in absorbance as compared to the control cell CHO-K1 greater than 2 fold.

B2: mu-89 (antibody, V domains shown)
VH: EVQLVESGGDLVKPGGSLKLSCAASGFTFSSYGMSWVRQTPDKRLEWVATISSGGSYTYYPDSVKGRFTFSRDNAKNTLYLQMSSLKSEDTAMYYCVRQALRYHMDSWGQGTSVTVSS
VL: DIVMTQSQKFMSTSVGDRVSVTCKASQNVGTNVAWYQQKPGQSPKALIYSASYRYSGVPDRFTGSGSGTDFTLTISNVQSEDLADFFCQQYYSYPWTFGGGTKLEIK
Take B2: in assay [1], the MFI is 11900 MFI. Also, the fold difference in absorbance as compared to the control cell CHO-K1 in assay [2] was greater than 2 fold.

B3: mu-105 (antibody, V domains shown)
VH: EVQLQQSGPELVKPGASVKMSCKASGYTFTDYYMNWVKQSHGKSLEWIGYIYPNNGGTGYNQRFKGKATLTADKSSSTAYMELRSLTSEDSAVYYCARWGGTRLGYYAMDYWGQGTSVTVSS
VL: DIVMTQSQKFMSTSVGDRVSVTCKASQNVGTNVVWYQQKPGQSPKLLIYWASTRHTGVPDRFTGSGSGTDFTLTISNVQSEDLADYFCQQYSRYPYTFGGGTKLEIK
Consider B3, for which the MFI in assay [1] was 13200 MFI. In assay [2], this molecule showed a fold difference in absorbance as compared to the control cell CHO-K1 greater than 2 fold.

B4: mu-131 (antibody, V domains shown)
VH: EVQLQQSGPELVKPGASVKMSCKASGYTFTNYVMHWVKQKPGQGLEWIGYFNPYNDGTNYNEKFKGKATLTSDKSSNTAYMELSSLTSEDSAVYYCARGGVRRYFDVWGAGTTVTVSS
VL: DIQMTQSPSSLSASLGERVSLTCRASQDIGSNLNWLQLGPDGTIKRLIYATFSLDSGVPKRFSGSRSGSDYSLTISSLESEDFVDYYCQQYANFPPTFGGGTKLEIK
B4 showed an MFI in assay [1] of 12800 MFI. This molecule yielded a fold difference in absorbance as compared to the control cell CHO-K1 in assay [2] greater than 2 fold.

B5: mu-169 (antibody, V domains shown)
VH: EVKLVESGGGLVKPGASLKLSCAASGFTFSNYGMSWVRQTSDKRLEWVASISSGGGRIYYPDNVKGRFTISRENAKNTLYLQMSSLKSEDTALYYCTRHAMDNWGQGTSVIVSS
VL: QIVLTQSPAIMSASPGEKVTMTCSASSSVSNMYWYQQKSGTSPKRWIYDTSKLASGVPARFSGSGSGTSYSLTISSMEAEDASTYYCQQWSSNPLTFGAGTTLELK
In assay [1], B5 came in with an MFI of 59300 MFI. Besides, the fold difference in absorbance as compared to the control cell CHO-K1 in assay [2] was greater than 2 fold.
